Laboratory results: the supplement of paper PMC10126150
± gives the standard deviation of the averaged measurements.

Test system: ATP
Test: switch fluorescence ratio, 500 uM ATP over buffer (Cy3 cluster intensity, sum of 5 cycles each) (fold (ratio)); higher = stronger signal-on switching upon ATP binding; sequences stand for … in TCGTCGGCAGCGTCAGATGTGTATAAGAGACAGTTTTTTTTTTTTTTTTTTTTTTTTT…TC
Settings: aptamer strand: ATP DNA aptamer (quencher-CACCTGGGGGAGTATTGCGGAGGAAGG + anchor), 100 nM annealed; ATP concentration: 500 uM
Procedure, shortened: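 Per cluster, summed Cy3 intensity from the target cycles was divided by that from the buffer cycles to give the fluorescence ratio, then averaged per switch-domain sequence. Clusters outside 100-1000 RFU were excluded. The Cy3-labelled switching-strand clusters, on a modified Illumina MiSeq flow-cell, were annealed to 100 nM quencher-labelled ATP aptamer and imaged in selection buffer, then after 15 min with 500 uM ATP at 22 °C, for five cycles with NaOH stripping and re-annealing between them.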
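Further: ATP exposure 15 min at 22 °C before imaging.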

Sequence	switch fluorescence ratio
ACCATACTGT	1.33 ± 0.055
ACATGTAGCG	0.99 ± 0.021
CTGGGGGGCT	1.02 ± 0.021
GTGCGCATTG	1.03 ± 0.046
AGGTTATTTG	0.978 ± 0.015
GGGTACTTTT	1 ± 0.0091
CCGGGGAACG	1.08 ± 0.048
GACAGCCGGT	1.01 ± 0.029
TGATCGGGGA	1.028 ± 0.0063
TTATTTTTGT	1.01 ± 0.026
ACGTCGCATG	1.09 ± 0.046
TCAACGGGAA	1.01 ± 0.014
CACTTTACTT	1.28 ± 0.072
GGTTCAATCT	0.9815 ± 0.0012
GACCGGGTTC	1.02 ± 0.033
TACGGTGGTG	0.987 ± 0.018
TCCAATGTAA	1.06 ± 0.041
GGTTGGCCGC	1.02 ± 0.032
TGTCTCCCTT	1.007 ± 0.0074
GCTACAGCTA	1.01 ± 0.04
AGAAATGGGA	0.987 ± 0.012
TGGGTGTGGA	1.01 ± 0.051
TAACATGGCG	0.959 ± 0.11
GCCATAGCCT	0.9953 ± 0.0084
TTGGGAGAAG	0.993 ± 0.051

Sequence	switch fluorescence ratio
ATTTTGCTAA	0.996 ± 0.016
GATGTGTGCG	0.897 ± 0.13
GGTTACGGC	1.07 ± 0.17
CTCTAAGTCG	0.976 ± 0.011
GCTCATAAAA	1.001 ± 0.0065
CGAAGTTGAC	1.63 ± 0.13
ACCTTCTTTT	1.11 ± 0.11
CGAGGACGGG	1 ± 0.029
GGTGAAGACC	0.9598 ± 0.0086
TTCGTTCTTT	1.005 ± 0.0043
TTGAGACTCG	0.995 ± 0.019
TGGGAATTGT	1 ± 0.026
ATATACTACA	1.06 ± 0.022
AGTGGGAGTA	1.05 ± 0.052
GATAGGTTTC	0.977 ± 0.07
CTAATGTGTC	1.02 ± 0.088
TTTGTACCCT	1.064 ± 0.0021
AGAAGTGAGC	0.978 ± 0.038
TCAACGAATG	0.994 ± 0.08
GAGAGGGGAG	0.983 ± 0.025
CTACGTAATG	3.16 ± 0.27
TTGGTTTGCG	0.962 ± 0.017
GAGTGCAATT	1.19 ± 0.034
GGGAGATTAA	0.975 ± 0.013
CCTCGTTTTT	1.11 ± 0.053

Sequence	switch fluorescence ratio
TCCAGTTGCT	1.02 ± 0.033
TGTTATGTCC	1 ± 0.023
GATAAGGGGA	1.03 ± 0.023
AATTAGATTT	1.021 ± 0.0055
GGAGACGATA	1.04 ± 0.0032
AGGTGCGGGA	1.02 ± 0.052
AGTTGGAAAA	0.997 ± 0.01
AGCTCCGACA	1.63 ± 0.058
GGGAGGAGAC	1.02 ± 0.053
GCCAGGGCGC	1.02 ± 0.018
TCATGGGATG	1.02 ± 0.018
ATGTGGGCGG	0.991 ± 0.028
GGGTCTCGTT	1.01 ± 0.013
GAGGGGTTG	0.988 ± 0.034
TTGGAGAGGT	1.02 ± 0.019
TTATGTCAGG	1.04 ± 0.015
GGTATTCGAA	1.054 ± 0.0022
TGGGTGGCTC	1.011 ± 0.0015
GCGAGAGGAT	0.985 ± 0.028
GACTTATCTA	1.016 ± 0.0073
TATTGACGGA	1.006 ± 0.0096
TTATTGGCAA	1.29 ± 0.34
AAGCTGTTAC	1.6 ± 0.081
TAAGTGTTAG	1.013 ± 0.0074
ATAGTGGTGC	0.958 ± 0.067

Sequence	switch fluorescence ratio
TTGGGGCCCT	1.01 ± 0.029
GCTTGGTGCA	0.997 ± 0.031
GGGGGCTCAG	0.9659 ± 0.0052
ACATTTATGG	0.999 ± 0.021
CATTTAGGGC	1.02 ± 0.054
TGATGATTTT	0.945 ± 0.017
GGGCAGGGGA	1.17 ± 0.35
TCCGGGATGG	1.33 ± 0.39
TCAGAGGAAT	1.01 ± 0.0089
TTCCATGAGT	0.963 ± 0.019
TCAGGGGATG	0.99 ± 0.026
CCTATTCTGA	0.97 ± 0.068
TAAGGGAAAC	0.963 ± 0.013
GAGGGGGGAT	1.01 ± 0.033
GGGTTTTCGT	0.9538 ± 0.0032
TAAAAGAAAA	1 ± 0.062
AGTTGAGCAG	1.02 ± 0.021
TTTTCATACT	1.07 ± 0.046
AGCTTTTTTA	1.02 ± 0.015
AAGCATGGGC	1.02 ± 0.029
TTTAATATTT	1.04 ± 0.077
CAGATATTGG	1.02 ± 0.023
TTTGGGCCTG	1.001 ± 0.0022
AGATGGGTAT	0.986 ± 0.011
GCGGCTTGGG	1.03 ± 0.055

Sequence	switch fluorescence ratio
GATCCAGAAT	0.9977 ± 0.0074
TTTTTCTACC	1.035 ± 0.0091
GAGATTTAGG	0.969 ± 0.034
ATGGGGAAGT	1.02 ± 0.02
GAGATGAGGA	0.97 ± 0.024
CAGGTGGTCA	1 ± 0.021
TTGAGGGTTC	0.96 ± 0.022
ACTGGTATAA	0.989 ± 0.015
TGAGAGTAAC	0.946 ± 0.07
GGGGGCCAGG	1.02 ± 0.073
TTAATTTTAG	0.9764 ± 0.0094
CGGGTGACTC	1.02 ± 0.012
GGTTGAGGGA	0.979 ± 0.016
GTTAGAGTAT	1 ± 0.012
TGAATTTAGA	0.986 ± 0.025
CCAATGTGCG	0.9925 ± 0.0092
GATGATTATT	0.9856 ± 0.0018
GCATGCAGGG	1.01 ± 0.045
AATCTATATT	1.01 ± 0.025
ATAGAGGATA	0.9861 ± 0.0073
TGATGGTGTC	0.968 ± 0.011
ACCAGCTTTT	1.04 ± 0.03
TTTAATCCGT	1.01 ± 0.055
GGGTGTAATT	1 ± 0.016
ACAGGGGGAA	1.01 ± 0.024

Sequence	switch fluorescence ratio
AGTTAGGGTC	1 ± 0.012
GTGGTTTGTT	1.01 ± 0.046
GTTGGGATTG	1.01 ± 0.013
TGGTGTGGGT	0.989 ± 0.014
CTGTAGTCTG	1.11 ± 0.019
CGTAGTTCTT	1.01 ± 0.03
TGAGCATAGT	1.026 ± 0.0023
ATCAGCGACT	0.993 ± 0.043
TCGTGAACCC	1.01 ± 0.023
GGGGGACGCT	0.972 ± 0.039
GGTACGTCGG	0.979 ± 0.048
GCCTGGTTGG	0.995 ± 0.015
ATGAGGGTGC	0.994 ± 0.054
AAGGTCGCGG	1 ± 0.017
AATCATGTAG	1.01 ± 0.011
GTCATAGTGT	0.955 ± 0.037
GCGATATGTT	1.03 ± 0.043
TTTCCCTCGT	1.16 ± 0.17
TCTTCATGCG	1.07 ± 0.053
TAGGAGGGCT	0.985 ± 0.049
TTTGTTGTTG	0.984 ± 0.03
GTGTGGGGCG	0.962 ± 0.058
CGGTGGTGAG	1.012 ± 0.0049
GTTAGAGGGG	1.01 ± 0.033
AATGTTGGTG	0.998 ± 0.018

Sequence	switch fluorescence ratio
GATTACTTCA	1.065 ± 0.0071
AAAACAAAAT	1.05 ± 0.026
GTGTAAGGGT	0.981 ± 0.018
ATCGTCGGTT	0.973 ± 0.013
CATGGTGGGA	0.969 ± 0.017
AGGTTGTATC	1.01 ± 0.028
CCGGGTCTTT	1.002 ± 0.0064
GGGTATGAGG	0.976 ± 0.032
TTATATTGGA	0.971 ± 0.017
TTGGGGGCTC	0.998 ± 0.024
GGATGGGTTT	1 ± 0.016
TCTAATTCAA	0.996 ± 0.018
GATTTATAAT	1.014 ± 0.0029
GTTTATTCCT	1.02 ± 0.044
TATGAGCTGG	0.97 ± 0.015
ATTGGTTACG	1.01 ± 0.028
CTTGCACCC	1.07 ± 0.024
GAAAAAAAAA	0.992 ± 0.023
AACTAGATG	0.982 ± 0.025
TCTTGCATAA	1.07 ± 0.076
TTGTATAGGG	1 ± 0.025
GTGGGGGTGG	0.985 ± 0.015
TAGTATTTAT	1.02 ± 0.044
TACGGCGTAC	1.08 ± 0.051
TGAGTTAAGT	0.997 ± 0.01

Sequence	switch fluorescence ratio
GGCTAGGGGG	1.01 ± 0.022
TAAGGCTGGG	0.962 ± 0.034
ATGAGAACTC	1.024 ± 0.0051
TGGGTAAGCA	1.03 ± 0.023
CTATCAACCG	1.04 ± 0.022
TTTTTTGCAT	1.07 ± 0.19
CATGTAATTT	0.966 ± 0.034
TATGCCTGTG	1.01 ± 0.036
ATGGAGGTTA	0.9695 ± 0.0085
GGTACAGGAC	1.06 ± 0.047
TAATGGATGT	0.976 ± 0.027
ATGCATAGTT	0.963 ± 0.017
CGGGTATTCT	0.974 ± 0.046
TTAAGGTATT	1.07 ± 0.12
TGGTTTTAGG	0.99 ± 0.029
TTTTACTTAA	1.28 ± 0.37
GTGTCATGGA	1 ± 0.029
ACATCGGATG	0.995 ± 0.025
TAAATTTGAG	0.991 ± 0.011
GGGGGGTTGG	0.989 ± 0.031
CGGAAGGGTA	0.989 ± 0.036
TTATGTTCGC	0.975 ± 0.034
TGTATTAAAG	0.983 ± 0.029
TGTAATCCGC	1.28 ± 0.021
GGAATTTTTT	0.9887 ± 0.0051
